Results from the Human Domainome abundance scans (Beltran et al. 2025).
± gives the uncertainty stated by the source.

Test: abundance fitness (aPCA) (normalised: wild type 0, dead -1); higher = more abundant; growth selection in yeast, the domain comes from the species named
Details: Homo sapiens

Substance | abundance fitness
Heterogeneous nuclear ribonucleoprotein U-like protein 2 A30M, Q1KMD3 | 0.067 ± 0.084
Heterogeneous nuclear ribonucleoprotein U-like protein 2 A39E, Q1KMD3 | -0.015 ± 0.064
Heterogeneous nuclear ribonucleoprotein U-like protein 2 D21S, Q1KMD3 | -0.165 ± 0.066
Heterogeneous nuclear ribonucleoprotein U-like protein 2 E35A, Q1KMD3 | 0.036 ± 0.052
Heterogeneous nuclear ribonucleoprotein U-like protein 2 Q16K, Q1KMD3 | 0.049 ± 0.092
Heterogeneous nuclear ribonucleoprotein U-like protein 2 Q31D, Q1KMD3 | -0.194 ± 0.11
Heterogeneous nuclear ribonucleoprotein U-like protein 2 S13D, Q1KMD3 | 0.114 ± 0.067
Heterogeneous nuclear ribonucleoprotein U-like protein 2 S22D, Q1KMD3 | 0.187 ± 0.09
Heterogeneous nuclear ribonucleoprotein U-like protein 2 V27A, Q1KMD3 | 0.131 ± 0.053
NEDD4-like E3 ubiquitin-protein ligase WWP2 A445C, O00308 | 0.056 ± 0.03
NEDD4-like E3 ubiquitin-protein ligase WWP2 A445D, O00308 | 0.121 ± 0.078
NEDD4-like E3 ubiquitin-protein ligase WWP2 A445E, O00308 | 0.025 ± 0.05
NEDD4-like E3 ubiquitin-protein ligase WWP2 A445F, O00308 | 0.007 ± 0.035
NEDD4-like E3 ubiquitin-protein ligase WWP2 A445H, O00308 | 0.069 ± 0.081
NEDD4-like E3 ubiquitin-protein ligase WWP2 A445I, O00308 | -0.016 ± 0.049
NEDD4-like E3 ubiquitin-protein ligase WWP2 A445K, O00308 | -0.01 ± 0.074
NEDD4-like E3 ubiquitin-protein ligase WWP2 A445L, O00308 | 0 ± 0.039
NEDD4-like E3 ubiquitin-protein ligase WWP2 A445M, O00308 | -0.073 ± 0.052
NEDD4-like E3 ubiquitin-protein ligase WWP2 A445N, O00308 | 0.103 ± 0.073
NEDD4-like E3 ubiquitin-protein ligase WWP2 A445P, O00308 | -0.14 ± 0.07
NEDD4-like E3 ubiquitin-protein ligase WWP2 A445Q, O00308 | 0.031 ± 0.049
NEDD4-like E3 ubiquitin-protein ligase WWP2 A445R, O00308 | 0.077 ± 0.039

Substance | abundance fitness
NEDD4-like E3 ubiquitin-protein ligase WWP2 A445S, O00308 | 0.04 ± 0.048
NEDD4-like E3 ubiquitin-protein ligase WWP2 A445T, O00308 | -0.211 ± 0.073
NEDD4-like E3 ubiquitin-protein ligase WWP2 A445V, O00308 | -0.001 ± 0.06
NEDD4-like E3 ubiquitin-protein ligase WWP2 A445W, O00308 | -0.074 ± 0.062
NEDD4-like E3 ubiquitin-protein ligase WWP2 A445Y, O00308 | -0.002 ± 0.048
NEDD4-like E3 ubiquitin-protein ligase WWP2 A490C, O00308 | -0.01 ± 0.051
NEDD4-like E3 ubiquitin-protein ligase WWP2 A490D, O00308 | 0.001 ± 0.061
NEDD4-like E3 ubiquitin-protein ligase WWP2 A490E, O00308 | 0.024 ± 0.062
NEDD4-like E3 ubiquitin-protein ligase WWP2 A490F, O00308 | -0.081 ± 0.051
NEDD4-like E3 ubiquitin-protein ligase WWP2 A490G, O00308 | -0.007 ± 0.039
NEDD4-like E3 ubiquitin-protein ligase WWP2 A490H, O00308 | -0.316 ± 0.078
NEDD4-like E3 ubiquitin-protein ligase WWP2 A490I, O00308 | 0.089 ± 0.077
NEDD4-like E3 ubiquitin-protein ligase WWP2 A490K, O00308 | 0.007 ± 0.037
NEDD4-like E3 ubiquitin-protein ligase WWP2 A490L, O00308 | -0.047 ± 0.037
NEDD4-like E3 ubiquitin-protein ligase WWP2 A490M, O00308 | 0.033 ± 0.053
NEDD4-like E3 ubiquitin-protein ligase WWP2 A490N, O00308 | -0.195 ± 0.082
NEDD4-like E3 ubiquitin-protein ligase WWP2 A490P, O00308 | -0.128 ± 0.065
NEDD4-like E3 ubiquitin-protein ligase WWP2 A490Q, O00308 | 0.029 ± 0.069
NEDD4-like E3 ubiquitin-protein ligase WWP2 A490R, O00308 | -0.047 ± 0.035
NEDD4-like E3 ubiquitin-protein ligase WWP2 A490S, O00308 | -0.013 ± 0.048
NEDD4-like E3 ubiquitin-protein ligase WWP2 A490V, O00308 | -0.05 ± 0.032
NEDD4-like E3 ubiquitin-protein ligase WWP2 A490W, O00308 | -0.185 ± 0.046

Substance | abundance fitness
NEDD4-like E3 ubiquitin-protein ligase WWP2 A490Y, O00308 | -0.09 ± 0.061
NEDD4-like E3 ubiquitin-protein ligase WWP2 D464A, O00308 | -0.797 ± 0.036
NEDD4-like E3 ubiquitin-protein ligase WWP2 D464C, O00308 | -0.438 ± 0.074
NEDD4-like E3 ubiquitin-protein ligase WWP2 D464E, O00308 | -0.372 ± 0.047
NEDD4-like E3 ubiquitin-protein ligase WWP2 D464F, O00308 | -0.903 ± 0.12
NEDD4-like E3 ubiquitin-protein ligase WWP2 D464I, O00308 | -1.28 ± 0.14
NEDD4-like E3 ubiquitin-protein ligase WWP2 D464K, O00308 | -0.972 ± 0.11
NEDD4-like E3 ubiquitin-protein ligase WWP2 D464N, O00308 | -0.138 ± 0.073
NEDD4-like E3 ubiquitin-protein ligase WWP2 D464P, O00308 | -0.921 ± 0.15
NEDD4-like E3 ubiquitin-protein ligase WWP2 D464Q, O00308 | -0.508 ± 0.075
NEDD4-like E3 ubiquitin-protein ligase WWP2 D464R, O00308 | -0.94 ± 0.041
NEDD4-like E3 ubiquitin-protein ligase WWP2 D464S, O00308 | -0.565 ± 0.056
NEDD4-like E3 ubiquitin-protein ligase WWP2 D464V, O00308 | -1.03 ± 0.061
NEDD4-like E3 ubiquitin-protein ligase WWP2 D464W, O00308 | -1.21 ± 0.14
NEDD4-like E3 ubiquitin-protein ligase WWP2 D464Y, O00308 | -0.693 ± 0.12
NEDD4-like E3 ubiquitin-protein ligase WWP2 D474A, O00308 | -0.168 ± 0.037
NEDD4-like E3 ubiquitin-protein ligase WWP2 D474C, O00308 | -0.288 ± 0.057
NEDD4-like E3 ubiquitin-protein ligase WWP2 D474E, O00308 | -0.192 ± 0.074
NEDD4-like E3 ubiquitin-protein ligase WWP2 D474F, O00308 | -0.376 ± 0.086
NEDD4-like E3 ubiquitin-protein ligase WWP2 D474H, O00308 | -0.095 ± 0.097
NEDD4-like E3 ubiquitin-protein ligase WWP2 D474I, O00308 | -0.069 ± 0.092
NEDD4-like E3 ubiquitin-protein ligase WWP2 D474K, O00308 | -0.505 ± 0.14

Substance | abundance fitness
NEDD4-like E3 ubiquitin-protein ligase WWP2 D474L, O00308 | -0.326 ± 0.061
NEDD4-like E3 ubiquitin-protein ligase WWP2 D474M, O00308 | -0.224 ± 0.063
NEDD4-like E3 ubiquitin-protein ligase WWP2 D474N, O00308 | -0.332 ± 0.065
NEDD4-like E3 ubiquitin-protein ligase WWP2 D474P, O00308 | -0.332 ± 0.085
NEDD4-like E3 ubiquitin-protein ligase WWP2 D474Q, O00308 | -0.279 ± 0.073
NEDD4-like E3 ubiquitin-protein ligase WWP2 D474R, O00308 | -0.19 ± 0.039
NEDD4-like E3 ubiquitin-protein ligase WWP2 D474S, O00308 | -0.406 ± 0.061
NEDD4-like E3 ubiquitin-protein ligase WWP2 D474T, O00308 | -0.442 ± 0.079
NEDD4-like E3 ubiquitin-protein ligase WWP2 D474V, O00308 | -0.387 ± 0.067
NEDD4-like E3 ubiquitin-protein ligase WWP2 D474W, O00308 | -0.253 ± 0.048
NEDD4-like E3 ubiquitin-protein ligase WWP2 D474Y, O00308 | -0.251 ± 0.097
NEDD4-like E3 ubiquitin-protein ligase WWP2 D492A, O00308 | -0.174 ± 0.054
NEDD4-like E3 ubiquitin-protein ligase WWP2 D492C, O00308 | -0.146 ± 0.061
NEDD4-like E3 ubiquitin-protein ligase WWP2 D492E, O00308 | 0.039 ± 0.065
NEDD4-like E3 ubiquitin-protein ligase WWP2 D492F, O00308 | -0.217 ± 0.044
NEDD4-like E3 ubiquitin-protein ligase WWP2 D492G, O00308 | -0.158 ± 0.051
NEDD4-like E3 ubiquitin-protein ligase WWP2 D492I, O00308 | -0.212 ± 0.057
NEDD4-like E3 ubiquitin-protein ligase WWP2 D492K, O00308 | 0.029 ± 0.074
NEDD4-like E3 ubiquitin-protein ligase WWP2 D492L, O00308 | -0.149 ± 0.061
NEDD4-like E3 ubiquitin-protein ligase WWP2 D492N, O00308 | -0.137 ± 0.069
NEDD4-like E3 ubiquitin-protein ligase WWP2 D492P, O00308 | -0.249 ± 0.076
